In patent publication US20180292412A1 (JULIUS MAXIMILIANS UNIVERSIT T W RZBURG, published 2018):
Residue numbers refer to the chain shown, from its start.

How the values were obtained:
[1] = biological target: T1, recombinant mature human GDF-15 protein derived from expression in E. coli (human, UniProt Q99988 195-308); assay: SPR (Biorad ProteOn XPR36), GDF-15 from E. coli immobilised, antibody as analyte
T1 construct: mature; also called GDF-15 derived from E. coli expression
T1 sequence (looked up): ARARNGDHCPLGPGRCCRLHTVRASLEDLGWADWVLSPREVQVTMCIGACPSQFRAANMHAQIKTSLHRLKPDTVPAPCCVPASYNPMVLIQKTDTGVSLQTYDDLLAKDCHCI
Source text: The GLC sensor chip was activated using Sulfo-NHS (N-Hydroxysulfosuccinimide) and EDC (1-Ethyl-3-[3-dimethylaminopropyl]carbodiimide hydrochloride) (Biorad ProteOn Amine Coupling Kit) according to the manufacturer's recommendation, the sensor surface was subsequently loaded with the proteins up to a density of about 600 RU (1 Ru=1 pg mm⁻²). The non-reacted coupling groups were then quenched by perfusion with 1M ethanolamine pH 8.5 and the biosensor was equilibrated by perfusing the chip with running buffer ([…], 150 mM NaCl, 3.4 mM EDTA, 0.005% Tween-20, pH 7.4, referred to as HBS150). As controls two flow cells were used, one empty with no protein coupled and one coupled with an non-physiological protein partner (human Interleukin-5), which was immobilized using the same coupling chemistry and the same coupling density. For interaction measurements anti-human GDF-15 mAb-B1-23 was dissolved in HBS150 and used in six different concentrations as analyte (concentration: 0.4, 0.8, 3, 12, 49 und 98 nM). […] The resulting sensogram was analyzed using the software ProteOn Manager version 3.0. […] For the association rate constant a value of 5.4±0.06×10⁵ M⁻¹s⁻¹ (kₒₙ) and for the dissociation rate constant a value of 4.3±0.03×10⁻⁴ s⁻¹ (koff) could be determined (values are for the interaction of anti-human GDF-15 mAb-B1-23 with GDF-15 derived from insect cell expression).

[2] = biological target: T2, recombinant mature human GDF-15 protein (as expressed in Baculovirus-transfected HighFive insect cells) (human, UniProt Q99988 197-308); assay: SPR (Biorad ProteOn XPR36), calculated as koff/kon
T2 construct: Immobilised by amine coupling on the SPR chip; also called recombinant human GDF-15; GDF-15 derived from insect cell expression
T2 sequence: T1 sequence (looked up) with A1G, R2S
Source text: (§1) For preparing the biosensors recombinant mature human GDF-15 protein was immobilized on flow cells 1 and 2. On one flow cell recombinant GDF-15 derived from Baculvirus-transfected insect cells (HighFive insect cells) and on the other recombinant protein derived from expression in E. coli was used. The GLC sensor chip was activated using Sulfo-NHS (N-Hydroxysulfosuccinimide) and EDC (1-Ethyl-3-[3-dimethylaminopropyl]carbodiimide hydrochloride) (Biorad ProteOn Amine Coupling Kit) according to the manufacturer's recommendation, the sensor surface was subsequently loaded with the proteins up to a density of about 600 RU (1 Ru=1 pg mm⁻²). The non-reacted coupling groups were then quenched by perfusion with 1M ethanolamine pH 8.5 and the biosensor was equilibrated by perfusing the chip with running buffer ([…], 150 mM NaCl, 3.4 mM EDTA, 0.005% Tween-20, pH 7.4, referred to as HBS150). […] The resulting sensogram was analyzed using the software ProteOn Manager version 3.0. […] For the association rate constant a value of 5.4±0.06×10⁵ M⁻¹s⁻¹ (kₒₙ) and for the dissociation rate constant a value of 4.3±0.03×10⁻⁴ s⁻¹ (koff) could be determined (values are for the interaction of anti-human GDF-15 mAb-B1-23 with GDF-15 derived from insect cell expression).

[3] = biological target: T2, recombinant mature human GDF-15 protein …; assay: SPR (Biorad ProteOn XPR36, GLC chip), GDF-15 from insect cells immobilised, antibody as analyte, 25° C., 1:1 Langmuir model
Source text: as §1

B1: monoclonal anti-human GDF-15 mAb-B1-23 (antibody, IgG2a, V domains shown, not shown: a dimerising Fc or GST)
VH: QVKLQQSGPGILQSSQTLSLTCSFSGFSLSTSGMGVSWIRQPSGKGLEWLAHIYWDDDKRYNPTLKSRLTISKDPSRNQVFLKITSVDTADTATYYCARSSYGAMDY
VL: DIVLTQSPKFMSTSVGDRVSVTCKASQNVGTNVAWFLQKPGQSPKALIYSASYRYSGVPDRFTGSGSGTDFTLTISNVQSEDLAEYFCQQYNNFPYT
notes: Mouse hybridoma antibody (DSM ACC3142), IgG2a, kappa chain; FR4 and the constant regions are missing; also called antibody B1-23; monoclonal mouse antibody GDF-15
[1]
  fold difference of affinity against GDF-15 derived from insect cells: < 2 fold
[2]
  Kd: ~0.79 nM
[3]
  koff: 0.00043 s⁻¹
  kon: 540000 M⁻¹ s⁻¹
